{"source": "patent US7629437", "about": "(University of California, dated 2009)", "binders": {"B1": {"name": "Ac-PRNK-cmk (peptide)", "peptide": "Ac-PRNK-CH2Cl", "SMILES": "CC(=O)N1CCC[C@H]1C(=O)N[C@@H](CCCNC(=N)N)C(=O)N[C@@H](CC(N)=O)C(=O)N[C@@H](CCCCN)C(=O)CCl"}}, "assay_in_all_cases": "cell-based or functional assay", "key": {"[1]": {"target": "Recombinant human βI tryptase (human, UniProt Q15661 31-275, N-glycosylated (non-, single-, double- and hyper-glycosylation forms observed))", "sequence (Q15661 31-275)": "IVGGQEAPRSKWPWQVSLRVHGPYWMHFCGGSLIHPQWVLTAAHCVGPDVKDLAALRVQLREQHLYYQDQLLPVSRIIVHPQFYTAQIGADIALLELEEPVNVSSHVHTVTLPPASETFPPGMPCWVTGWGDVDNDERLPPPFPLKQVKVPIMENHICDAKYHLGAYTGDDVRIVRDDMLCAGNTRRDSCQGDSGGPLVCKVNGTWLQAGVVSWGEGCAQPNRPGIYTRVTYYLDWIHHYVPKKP"}, "[2]": {"target": "Human thrombin (human, UniProt P00734 328-622)"}, "[3]": {"target": "tissue-type plasminogen activator (UniProt P00750 36-562, limits assumed)", "sequence (P00750 36-562 limits assumed)": "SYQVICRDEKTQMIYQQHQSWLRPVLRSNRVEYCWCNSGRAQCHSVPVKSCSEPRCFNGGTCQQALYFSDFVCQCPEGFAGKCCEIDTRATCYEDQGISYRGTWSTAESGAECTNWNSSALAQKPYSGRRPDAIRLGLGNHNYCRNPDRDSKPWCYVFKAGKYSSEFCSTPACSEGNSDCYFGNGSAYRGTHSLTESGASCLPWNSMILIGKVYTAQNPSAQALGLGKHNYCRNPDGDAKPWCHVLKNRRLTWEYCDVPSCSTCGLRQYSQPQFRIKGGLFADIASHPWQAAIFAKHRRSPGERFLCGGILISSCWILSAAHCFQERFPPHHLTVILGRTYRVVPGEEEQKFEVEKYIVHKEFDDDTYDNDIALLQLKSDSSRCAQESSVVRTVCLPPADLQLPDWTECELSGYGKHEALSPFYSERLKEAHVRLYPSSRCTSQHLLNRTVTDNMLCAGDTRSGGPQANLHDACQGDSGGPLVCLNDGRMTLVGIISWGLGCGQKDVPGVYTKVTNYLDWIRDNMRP"}, "[4]": {"target": "Human plasmin (human, UniProt P00747 97-810, limits assumed)", "sequence (P00747 97-810 limits assumed)": "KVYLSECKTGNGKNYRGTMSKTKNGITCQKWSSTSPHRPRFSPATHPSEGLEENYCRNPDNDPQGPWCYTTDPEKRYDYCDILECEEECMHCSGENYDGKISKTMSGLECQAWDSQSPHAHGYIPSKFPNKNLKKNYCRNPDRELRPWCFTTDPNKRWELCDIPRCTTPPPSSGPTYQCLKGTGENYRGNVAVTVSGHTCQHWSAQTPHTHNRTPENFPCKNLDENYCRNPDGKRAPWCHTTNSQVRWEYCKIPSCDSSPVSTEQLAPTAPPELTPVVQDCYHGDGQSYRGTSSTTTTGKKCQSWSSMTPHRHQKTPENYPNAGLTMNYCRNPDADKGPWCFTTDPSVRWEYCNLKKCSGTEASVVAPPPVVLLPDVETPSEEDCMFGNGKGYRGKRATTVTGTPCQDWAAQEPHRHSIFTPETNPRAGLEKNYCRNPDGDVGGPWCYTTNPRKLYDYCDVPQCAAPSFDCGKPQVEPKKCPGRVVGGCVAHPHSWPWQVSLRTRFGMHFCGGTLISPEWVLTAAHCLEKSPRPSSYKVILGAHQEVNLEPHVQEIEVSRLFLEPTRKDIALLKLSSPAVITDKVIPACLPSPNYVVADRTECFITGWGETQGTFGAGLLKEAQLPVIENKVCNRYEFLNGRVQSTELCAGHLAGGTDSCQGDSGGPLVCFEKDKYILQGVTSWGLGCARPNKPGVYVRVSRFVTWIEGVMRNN"}, "[5]": {"target": "Factor Xa"}, "[6]": {"target": "Recombinant human βII tryptase (human, singly N-glycosylated (non- and single-glycosylation forms observed))", "sequence (chain, as listed by the source)": "as the sequence (Q15661 31-275) above, with N102K counted along it"}, "[7]": {"target": "urokinase plasminogen activator (UniProt P00749 21-431, limits assumed)"}}, "note": "*: point of attachment. CH2Cl = ClC*"}
{"binder": "B1", "values": [{"measurement": "Percent Inhibition, 10 µM Ac-PRNK-cmk", "setting": "[1]", "value": 95, "unit": "%"}, {"measurement": "Percent Inhibition, 100 µM Ac-PRNK-cmk", "setting": "[1]", "value": 100, "unit": "%"}, {"measurement": "Percent Inhibition, 10 µM Ac-PRNK-cmk", "setting": "[2]", "value": 0, "unit": "%"}, {"measurement": "Percent Inhibition, 100 µM Ac-PRNK-cmk", "setting": "[2]", "value": 0, "unit": "%"}, {"measurement": "Percent Inhibition, 10 µM Ac-PRNK-cmk", "setting": "[3]", "value": 0, "unit": "%"}, {"measurement": "Percent Inhibition, 100 µM Ac-PRNK-cmk", "setting": "[3]", "value": 0, "unit": "%"}, {"measurement": "Percent Inhibition, 10 µM Ac-PRNK-cmk", "setting": "[4]", "value": 0, "unit": "%"}, {"measurement": "Percent Inhibition, 100 µM Ac-PRNK-cmk", "setting": "[4]", "value": 63, "unit": "%"}, {"measurement": "Percent Inhibition, 10 µM Ac-PRNK-cmk", "setting": "[5]", "value": 0, "unit": "%"}, {"measurement": "Percent Inhibition, 100 µM Ac-PRNK-cmk", "setting": "[5]", "value": 0, "unit": "%"}, {"measurement": "Percent Inhibition, 10 µM Ac-PRNK-cmk", "setting": "[6]", "value": 95, "unit": "%"}, {"measurement": "Percent Inhibition, 100 µM Ac-PRNK-cmk", "setting": "[6]", "value": 100, "unit": "%"}, {"measurement": "Percent Inhibition, 10 µM Ac-PRNK-cmk", "setting": "[7]", "value": 0, "unit": "%"}, {"measurement": "Percent Inhibition, 100 µM Ac-PRNK-cmk", "setting": "[7]", "value": 34, "unit": "%"}]}
